This assay concerns the target ^cchexAFG3L2 (human) (UniProt Q9Y4W6). Briefly: SEC.

For “^cchexAFG3L2 (from UniProt Q9Y4W6 272-797) (enzyme)”, the stoichiometry N came to 6.
